T1: GST-tagged Dhh1(46–461) (S. cerevisiae, UniProt P39517 46-461)
T1 sequence (looked up): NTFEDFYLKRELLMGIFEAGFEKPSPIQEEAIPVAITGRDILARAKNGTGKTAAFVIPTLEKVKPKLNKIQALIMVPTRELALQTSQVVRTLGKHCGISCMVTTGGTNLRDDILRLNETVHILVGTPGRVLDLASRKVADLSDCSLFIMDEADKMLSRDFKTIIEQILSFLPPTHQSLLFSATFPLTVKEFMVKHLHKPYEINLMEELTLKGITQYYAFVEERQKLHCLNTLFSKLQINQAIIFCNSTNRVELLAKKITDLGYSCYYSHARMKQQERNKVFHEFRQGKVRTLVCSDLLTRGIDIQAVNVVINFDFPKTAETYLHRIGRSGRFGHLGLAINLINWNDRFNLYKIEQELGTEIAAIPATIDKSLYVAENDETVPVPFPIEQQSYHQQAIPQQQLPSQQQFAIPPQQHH


Target: T1, GST-tagged Dhh1(46–461)
Assay: pull-down

Binder | binding result
His-Dcp2(1–300)-Flag (domain or fragment, S. cerevisiae, UniProt P53550 1-300, looked up) MSLPLRHALENVTSVDRILEDLLVRFIINCPNEDLSSVERELFHFEEASWFYTDFIKLMNPTLPSLKIKSFAQLIIKLCPLVWKWDIRVDEALQQFSKYKKSIPVRGAAIFNENLSKILLVQGTESDSWSFPRGKISKDENDIDCCIREVKEEIGFDLTDYIDDNQFIERNIQGKNYKIFLISGVSEVFNFKPQVRNEIDKIEWFDFKKISKTMYKSNIKYYLINSMMRPLSMWLRHQRQIKNEDQLKSYAEEQLKLLLGITKEEQIDPGRELLNMLHTAVQANSNNNAVSNGQVPSSQE | binds
His-Dcp2(102–300)-Flag (domain or fragment, S. cerevisiae, UniProt P53550 102-300, looked up) SIPVRGAAIFNENLSKILLVQGTESDSWSFPRGKISKDENDIDCCIREVKEEIGFDLTDYIDDNQFIERNIQGKNYKIFLISGVSEVFNFKPQVRNEIDKIEWFDFKKISKTMYKSNIKYYLINSMMRPLSMWLRHQRQIKNEDQLKSYAEEQLKLLLGITKEEQIDPGRELLNMLHTAVQANSNNNAVSNGQVPSSQE | binds

Source: paper PMC2064791 (The Journal of Cell Biology, 2007)
